Data on 2 molecules can be found in patent US20100080799A1 (ROCKEFELLER UNIVERSITY, published 2010).

Where no end group is shown, it is not given here. [ ]: non-standard residue; d: D form. pS = N[C@@H](COP(=O)(O)O)C(=O)O

The target in assay [1] is endogenous BRCA1 from 293T cell nuclear extracts (UniProt P38398 1-1863, limits assumed). Briefly: peptide pull-down from 293T nuclear extracts (FIG. 4I).
In assay [2] the target is T1, GST-tagged N-motif (1-205) of the WSTF kinase domain (human, UniProt Q9UIG0 1-205).
T1 construct: Made in E. coli; also called GST-tagged WAC N-; N-terminal motif; not shown: N-terminal GST tag of pGex6p
T1 sequence: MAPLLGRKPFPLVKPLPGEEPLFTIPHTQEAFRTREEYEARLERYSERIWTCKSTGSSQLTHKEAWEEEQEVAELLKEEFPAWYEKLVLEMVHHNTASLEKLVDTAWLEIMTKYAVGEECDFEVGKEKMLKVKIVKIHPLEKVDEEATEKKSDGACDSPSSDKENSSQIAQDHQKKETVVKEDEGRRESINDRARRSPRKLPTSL
Put plainly: co-expression in E. coli, amylose affinity purification against the MBP tag, Superdex 200 gel filtration. The method, then:
For co-expression of the N- and C-motifs of WSTF, the recombinant plasmid vectors carrying the N- and C-motif constructs (above) were transformed into E. coli host strain Rosetta2 (DE3) (Novagen) for protein expression under triple antibiotic selection (ampicillin, kanamycin, and chloramphenicol) in LB medium. After overnight induction by 0.4 mM isopropyl β-D-thiogalactoside at 25° C., cells were harvested in buffer 0.4 M KCl, 20 mM Tris, pH 7.5. Co-expressed proteins were affinity purified using Amylose resin (New England Biolabs, MA) against the MBP tag. Maltose-eluted samples were purified through a Superdex 200 column (GE Healthcare) in the elution buffer (50 mM KCL, 20 mM Tris, pH 7.5). Most proteins were eluted in a single peak that contains GST-tagged […] with a stoichiometry of 1:1.

Chain of endogenous BRCA1 from 293T cell nuclear extracts (P38398 whole entry, the tested form may be a part): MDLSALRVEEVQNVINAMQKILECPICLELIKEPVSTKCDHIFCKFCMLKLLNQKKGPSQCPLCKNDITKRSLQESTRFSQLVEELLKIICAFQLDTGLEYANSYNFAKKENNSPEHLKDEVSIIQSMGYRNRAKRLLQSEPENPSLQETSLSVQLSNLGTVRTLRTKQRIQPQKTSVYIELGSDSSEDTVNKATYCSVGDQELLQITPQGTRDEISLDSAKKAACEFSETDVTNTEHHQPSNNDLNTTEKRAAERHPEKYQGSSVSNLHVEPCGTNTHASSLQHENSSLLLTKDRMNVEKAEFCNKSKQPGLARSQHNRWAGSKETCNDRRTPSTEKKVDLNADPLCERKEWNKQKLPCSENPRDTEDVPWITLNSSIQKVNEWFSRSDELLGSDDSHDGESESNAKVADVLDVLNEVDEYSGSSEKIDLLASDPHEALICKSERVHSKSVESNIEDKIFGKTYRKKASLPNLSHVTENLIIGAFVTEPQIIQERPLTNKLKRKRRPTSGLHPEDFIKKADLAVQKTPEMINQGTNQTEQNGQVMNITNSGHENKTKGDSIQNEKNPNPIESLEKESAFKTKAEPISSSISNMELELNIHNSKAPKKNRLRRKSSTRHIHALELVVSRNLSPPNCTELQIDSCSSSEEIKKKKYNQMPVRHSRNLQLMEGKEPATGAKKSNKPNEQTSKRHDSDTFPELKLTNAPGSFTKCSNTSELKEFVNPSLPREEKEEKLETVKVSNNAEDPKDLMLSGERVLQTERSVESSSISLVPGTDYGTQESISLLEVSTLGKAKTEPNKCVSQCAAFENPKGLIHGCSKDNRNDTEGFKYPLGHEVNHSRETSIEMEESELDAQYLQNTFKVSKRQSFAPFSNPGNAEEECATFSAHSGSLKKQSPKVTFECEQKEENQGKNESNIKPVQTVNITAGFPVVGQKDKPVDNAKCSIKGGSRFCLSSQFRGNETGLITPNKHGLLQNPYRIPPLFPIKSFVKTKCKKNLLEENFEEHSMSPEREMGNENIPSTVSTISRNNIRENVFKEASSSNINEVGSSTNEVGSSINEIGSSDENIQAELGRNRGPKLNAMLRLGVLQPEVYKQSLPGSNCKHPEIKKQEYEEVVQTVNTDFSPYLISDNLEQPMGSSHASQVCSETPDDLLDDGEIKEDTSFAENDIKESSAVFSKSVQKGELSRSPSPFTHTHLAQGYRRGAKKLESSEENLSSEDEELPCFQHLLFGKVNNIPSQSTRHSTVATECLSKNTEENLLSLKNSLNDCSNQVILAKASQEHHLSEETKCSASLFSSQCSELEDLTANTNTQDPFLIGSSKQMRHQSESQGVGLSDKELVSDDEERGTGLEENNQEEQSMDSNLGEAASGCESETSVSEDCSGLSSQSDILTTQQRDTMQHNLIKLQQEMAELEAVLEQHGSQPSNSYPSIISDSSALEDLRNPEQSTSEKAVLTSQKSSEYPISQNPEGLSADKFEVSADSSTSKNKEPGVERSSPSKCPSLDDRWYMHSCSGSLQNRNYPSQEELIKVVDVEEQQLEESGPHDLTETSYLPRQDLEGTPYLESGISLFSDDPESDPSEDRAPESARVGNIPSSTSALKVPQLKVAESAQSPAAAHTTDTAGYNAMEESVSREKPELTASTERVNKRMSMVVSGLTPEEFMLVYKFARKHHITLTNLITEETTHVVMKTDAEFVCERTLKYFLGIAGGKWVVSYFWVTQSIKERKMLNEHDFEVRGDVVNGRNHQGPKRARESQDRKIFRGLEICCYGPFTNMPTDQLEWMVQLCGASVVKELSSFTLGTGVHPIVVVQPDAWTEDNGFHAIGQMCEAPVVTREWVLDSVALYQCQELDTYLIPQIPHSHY

B1: H2A.X peptide S139(ph), N-CPSGGKKATQApSQEY-C (peptide)
peptide: CPSGGKKATQA[pS]QEY
notes: Pull-down peptide; also called Ser139(ph) peptides; H2A.X peptides singly phosphorylated on Ser139
B1: the binding result in assay [1] is “no binding”.

B2: MBP-tagged C-motif (208-345) of the WSTF kinase domain (other)
chain: GERKWAPPKFLPHKYDVKLQNEDKIISNVPADSLIRTERPPNKEIVRYFIRHNALRAGTGENAPWVVEDELVKKYSLPSKFSDFLLDPYKYMTLNPSTKRKNTGSPDRKPSKKSKTDNSSLSSPLNPKLWCHVHLKKS
notes: Made in E. coli; also called MBP-tagged WAC C-motif; not shown: N-terminal MBP tag of a modified pRSFDuet-1
Consider B2, for which the binding result in assay [2] is given as “binds”.
